Data from PMC8678608.

Target: human VEGF165 protein (human)
Assay: ELISA; plates coated with recombinant human PD-L1 or VEGF165 (100 ng/well, carbonate buffer); antibody 1 h at room temperature; detected with HRP goat anti-human Fc, TMB, 450 nm

B1: HB0025 (anti-PD-L1/VEGFR1D2-Ig fusion protein) (bispecific antibody, V domains shown)
VH: QVQLVQSGAEVKKPGASVKVSCKASGYAFTGYTIHWVRQAPGQRLEWMGWFYPGSGTLKYSEKFQGRVTITRDKSLSTAYMELSSLRSEDTAVYYCARHGTGTLMAMDYWGQGTLVTVSS
VL: DVVMTQTPLSLSVTPGQPASISCKSSQSLANSYGNTYLSWYLHKPGQSPQLLIYGISNRFSGVPDRFSGSGSGTDFTLKISRVEAEDVGVYYCLQGTHQPPTFGQGTKLEIK
An EC50 of 0.48 nM was found for B1 in this work.
